Results: PMC3286403
Where “and” joins values, the source holds several entries; their conditions need not be identical. Equal values may be shown once. Read-outs that look alike come from different tables or passages of the source.

Legend:
[1] = target: His-tagged HIV-1 integrase Y194A (HIV-1); experiment: AlphaScreen or HTRF; HTRF; His-IN 80 nM, GST-LEDGF/p75 or GST-TNPO3 5 nM, anti-GST-Europium Cryptate and anti-His-XL665; 25 mM Hepes pH 7.3, 150 mM NaCl, 2 mM MgCl2, 0.1% BSA, 1 mM DTT; read 2 h after incubation; signal as percent of IN WT ΔF
[2] = target: His6-tagged HIV-1 integrase K188Q (HIV-1); experiment: as above
[3] = target: His6-tagged HIV-1 integrase Q168L (HIV-1); experiment: as above
[4] = target: His6-tagged HIV-1 integrase Y194E (HIV-1); experiment: as above
[5] = target: His6-tagged HIV-1 integrase W131A (HIV-1); experiment: as above
[6] = target: untagged HIV-1 integrase W131A (HIV-1); experiment: SEC; 2.5 μM untagged IN on Superdex 200 10/300 GL; 50 mM HEPES pH 7.4, 750 mM NaCl, 10% glycerol; calibrated with protein standards; no DNA
[7] = target: untagged HIV-1 integrase Y194E (HIV-1); experiment: as above
[8] = target: untagged HIV-1 integrase wild type (HIV-1); experiment: as above
[9] = target: His6-tagged HIV-1 integrase Y194F (HIV-1); experiment: AlphaScreen or HTRF; HTRF; His-IN 80 nM, GST-LEDGF/p75 or GST-TNPO3 5 nM, anti-GST-Europium Cryptate and anti-His-XL665; 25 mM Hepes pH 7.3, 150 mM NaCl, 2 mM MgCl2, 0.1% BSA, 1 mM DTT; read 2 h after incubation; signal as percent of IN WT ΔF
[10] = target: His6-tagged HIV-1 integrase Q168L (HIV-1); experiment: as above; remark: listed apart in the source
[11] = target: His6-tagged HIV-1 integrase Y194E (HIV-1); experiment: as above; remark: listed apart in the source
[12] = target: His6-tagged HIV-1 integrase W131A (HIV-1); experiment: as above; remark: listed apart in the source

Question: “GST-LEDGF/p75 full length (from UniProt O75475 1-530) (natural protein)” was tested. Which percent decrease of binding against IN WT (HTRF) [1] did it give?
Answer: 27%

Question: And the percent decrease of binding against IN WT (HTRF) [2]?
Answer: 64.9%

Question: What about the percent of IN WT interaction (HTRF) [3] of the same molecule?
Answer: 16.3%

Question: And the percent decrease of binding against IN WT (HTRF) [4]?
Answer: 26%

Question: What about the percent of IN WT interaction (HTRF) [5] of the same molecule?
Answer: 9.3%

Question: With untagged HIV-1 integrase W131A (enzyme) as the molecule, how does the stoichiometry N [6] read?
Answer: 4 and 2

Question: For untagged HIV-1 integrase Y194E (enzyme), which stoichiometry N [7] is on record?
Answer: 4

Question: For “untagged HIV-1 integrase wild type (enzyme)”, which stoichiometry N [8] is on record?
Answer: 4 and 2

B1: GST-TNPO3 full length (natural protein)
chain: MEGAKPTLQLVYQAVQALYHDPDPSGKERASFWLGELQRSVHAWEISDQLLQIRQDVESCYFAAQTMKMKIQTSFYELPTDSHASLRDSLLTHIQNLKDLSPVIVTQLALAIADLALQMPSWKGCVQTLVEKYSNDVTSLPFLLEILTVLPEEVHSRSLRIGANRRTEIIEDLAFYSSTVVSLLMTCVEKAGTDEKMLMKVFRCLGSWFNLGVLDSNFMANNKLLALLFEVLQQDKTSSNLHEAASDCVCSALYAIENVETNLPLAMQLFQGVLTLETAYHMAVAREDLDKVLNYCRIFTELCETFLEKIVCTPGQGLGDLRTLELLLICAGHPQYEVVEISFNFWYRLGEHLYKTNDEVIHGIFKAYIQRLLHALARHCQLEPDHEGVPEETDDFGEFRMRVSDLVKDLIFLIGSMECFAQLYSTLKEGNPPWEVTEAVLFIMAAIAKSVDPENNPTLVEVLEGVVRLPETVHTAVRYTSIELVGEMSEVVDRNPQFLDPVLGYLMKGLCEKPLASAAAKAIHNICSVCRDHMAQHFNGLLEIARSLDSFLLSPEAAVGLLKGTALVLARLPLDKITECLSELCSVQVMALKKLLSQEPSNGISSDPTVFLDRLAVIFRHTNPIVENGQTHPCQKVIQEIWPVLSETLNKHRADNRIVERCCRCLRFAVRCVGKGSAALLQPLVTQMVNVYHVHQHSCFLYLGSILVDEYGMEEGCRQGLLDMLQALCIPTFQLLEQQNGLQNHPDTVDDLFRLATRFIQRSPVTLLRSQVVIPILQWAIASTTLDHRDANCSVMRFLRDLIHTGVANDHEEDFELRKELIGQVMNQLGQQLVSQLLHTCCFCLPPYTLPDVAEVLWEIMQVDRPTFCRWLENSLKGLPKETTVGAVTVTHKQLTDFHKQVTSAEECKQVCWALRDFTRLFR
Question: What does the source list for B1?
Answer: percent decrease of binding against IN WT (HTRF) [9]: 14.4%; percent of IN WT (HTRF) [10]: 45%; percent decrease of binding against IN WT (HTRF) [11]: 23.5%; percent of IN WT (HTRF) [12]: 49%
